Test results as given in patent US20240010683A1, “Peptide Inhibitors of Human Mitochondrial Fission Protein 1 and Methods of Use” (The Medical College of Wisconsin, Inc., priority 2020, published 2024).
Several values for one entry are separate records, joined by “and”; a condition that tells them apart may be missing. Identical values can stand only once.

Target: T1, recombinant human mitochondrial fission protein 1 (Fis1) (human), Q9Y3D6
T1 chain: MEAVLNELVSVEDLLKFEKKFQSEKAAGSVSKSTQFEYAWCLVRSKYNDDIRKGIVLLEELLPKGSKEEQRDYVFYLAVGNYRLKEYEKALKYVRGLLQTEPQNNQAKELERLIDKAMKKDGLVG

SHKHDPLPYPHFLL (modifications not checked) [pep213]
Kd: 7 µM and 3.3 µM
